17 molecules from patent US9657062B2, “Ghrelin analogues” (Zealand Pharma A/S, priority 2012, dated 2017) can be followed below.

Bridges are numbered along the chain shown (N, C = ends). [ ]: non-standard residue; d: D form. The star is where a group is joined. Octanoyl = CCCCCCCC(=O)*; Dap = NC[C@H](N)C(=O)O; Octyl = CCCCCCCC*

B1: H-PS-S(O-octyl)-FLSPEHE()RVQK()RKESKKPPAKLQPR-NH2 (peptide)
peptide: H-PSS(Octyl)FLSPEHERVQKRKESKKPPAKLQPR-NH2
modifications: lactam 10-14
SMILES: CCCCCCCCOC[C@H](NC(=O)[C@H](CO)NC(=O)[C@@H]1CCCN1)C(=O)N[C@@H](Cc1ccccc1)C(=O)N[C@@H](CC(C)C)C(=O)N[C@@H](CO)C(=O)N1CCC[C@H]1C(=O)N[C@@H](CCC(=O)O)C(=O)N[C@@H](Cc1c[nH]cn1)C(=O)N[C@H]1CCC(=O)NCCCC[C@@H](C(=O)N[C@@H](CCCNC(=N)N)C(=O)N[C@@H](CCCCN)C(=O)N[C@@H](CCC(=O)O)C(=O)N[C@@H](CO)C(=O)N[C@@H](CCCCN)C(=O)N[C@@H](CCCCN)C(=O)N2CCC[C@H]2C(=O)N2CCC[C@H]2C(=O)N[C@@H](C)C(=O)N[C@@H](CCCCN)C(=O)N[C@@H](CC(C)C)C(=O)N[C@@H](CCC(N)=O)C(=O)N2CCC[C@H]2C(=O)N[C@@H](CCCNC(=N)N)C(N)=O)NC(=O)[C@H](CCC(N)=O)NC(=O)[C@H](C(C)C)NC(=O)[C@H](CCCNC(=N)N)NC1=O
B2: H-PS-Dap(N-octanoyl)-FLSPY-NH2 (peptide)
peptide: H-PS[Dap](Octanoyl)FLSPY-NH2
SMILES: CCCCCCCC(=O)NC[C@H](NC(=O)[C@H](CO)NC(=O)[C@@H]1CCCN1)C(=O)N[C@@H](Cc1ccccc1)C(=O)N[C@@H](CC(C)C)C(=O)N[C@@H](CO)C(=O)N1CCC[C@H]1C(=O)N[C@@H](Cc1ccc(O)cc1)C(N)=O
B3: H-PS-Dap(N-octanoyl)-FLSPK-NH2 (peptide)
peptide: H-PS[Dap](Octanoyl)FLSPK-NH2
SMILES: CCCCCCCC(=O)NC[C@H](NC(=O)[C@H](CO)NC(=O)[C@@H]1CCCN1)C(=O)N[C@@H](Cc1ccccc1)C(=O)N[C@@H](CC(C)C)C(=O)N[C@@H](CO)C(=O)N1CCC[C@H]1C(=O)N[C@@H](CCCCN)C(N)=O
B4: H-GS-S(octanoyl)-FLSPE()HQRK()QQRKESKKPPAKLQPR-OH (peptide)
peptide: H-GSS(Octanoyl)FLSPEHQRKQQRKESKKPPAKLQPR-OH
modifications: lactam 8-12
SMILES: CCCCCCCC(=O)OC[C@H](NC(=O)[C@H](CO)NC(=O)CN)C(=O)N[C@@H](Cc1ccccc1)C(=O)N[C@@H](CC(C)C)C(=O)N[C@@H](CO)C(=O)N1CCC[C@H]1C(=O)N[C@H]1CCC(=O)NCCCC[C@@H](C(=O)N[C@@H](CCC(N)=O)C(=O)N[C@@H](CCC(N)=O)C(=O)N[C@@H](CCCNC(=N)N)C(=O)N[C@@H](CCCCN)C(=O)N[C@@H](CCC(=O)O)C(=O)N[C@@H](CO)C(=O)N[C@@H](CCCCN)C(=O)N[C@@H](CCCCN)C(=O)N2CCC[C@H]2C(=O)N2CCC[C@H]2C(=O)N[C@@H](C)C(=O)N[C@@H](CCCCN)C(=O)N[C@@H](CC(C)C)C(=O)N[C@@H](CCC(N)=O)C(=O)N2CCC[C@H]2C(=O)N[C@@H](CCCNC(=N)N)C(=O)O)NC(=O)[C@H](CCCNC(=N)N)NC(=O)[C@H](CCC(N)=O)NC(=O)[C@H](Cc2c[nH]cn2)NC1=O
B5: H-PS-S(O-octyl)-FLSPE()HQRK()QQRKESKKPPAKLQPR-NH2 (peptide)
peptide: H-PSS(Octyl)FLSPEHQRKQQRKESKKPPAKLQPR-NH2
modifications: lactam 8-12
SMILES: CCCCCCCCOC[C@H](NC(=O)[C@H](CO)NC(=O)[C@@H]1CCCN1)C(=O)N[C@@H](Cc1ccccc1)C(=O)N[C@@H](CC(C)C)C(=O)N[C@@H](CO)C(=O)N1CCC[C@H]1C(=O)N[C@H]1CCC(=O)NCCCC[C@@H](C(=O)N[C@@H](CCC(N)=O)C(=O)N[C@@H](CCC(N)=O)C(=O)N[C@@H](CCCNC(=N)N)C(=O)N[C@@H](CCCCN)C(=O)N[C@@H](CCC(=O)O)C(=O)N[C@@H](CO)C(=O)N[C@@H](CCCCN)C(=O)N[C@@H](CCCCN)C(=O)N2CCC[C@H]2C(=O)N2CCC[C@H]2C(=O)N[C@@H](C)C(=O)N[C@@H](CCCCN)C(=O)N[C@@H](CC(C)C)C(=O)N[C@@H](CCC(N)=O)C(=O)N2CCC[C@H]2C(=O)N[C@@H](CCCNC(=N)N)C(N)=O)NC(=O)[C@H](CCCNC(=N)N)NC(=O)[C@H](CCC(N)=O)NC(=O)[C@H](Cc2c[nH]cn2)NC1=O
B6: Ac-Orn-S(O-octyl)-FLSPEHQRVQQRKESKKPPAKLQPR-NH2 (peptide)
peptide: RSFLSPEHQRVQQRKESKKPPAKLQPR
modifications: N-terminal Ac-Orn (acetylated ornithine, stands for X1 and X2 together); next residue Ser(O-octyl) (position 3 of the formula); C-terminal amide (-NH2)
B7: H-Orn-S(O-octyl)-FLSPEHQRVQQRKESKKPPAKLQPR-NH2 (peptide)
peptide: RSFLSPEHQRVQQRKESKKPPAKLQPR
modifications: N-terminal Orn (ornithine, stands for X1 and X2 together); next residue Ser(O-octyl) (position 3 of the formula); C-terminal amide (-NH2)
B8: H-PS-Dap(N-octanoyl)-FL-NH2 (peptide)
peptide: H-PS[Dap](Octanoyl)FL-NH2
SMILES: CCCCCCCC(=O)NC[C@H](NC(=O)[C@H](CO)NC(=O)[C@@H]1CCCN1)C(=O)N[C@@H](Cc1ccccc1)C(=O)N[C@@H](CC(C)C)C(N)=O
B9: H-GS-S(octanoyl)-FLSPEHE()RVQK()RKESKKPPAKLQPR-OH (peptide)
peptide: H-GSS(Octanoyl)FLSPEHERVQKRKESKKPPAKLQPR-OH
modifications: lactam 10-14
SMILES: CCCCCCCC(=O)OC[C@H](NC(=O)[C@H](CO)NC(=O)CN)C(=O)N[C@@H](Cc1ccccc1)C(=O)N[C@@H](CC(C)C)C(=O)N[C@@H](CO)C(=O)N1CCC[C@H]1C(=O)N[C@@H](CCC(=O)O)C(=O)N[C@@H](Cc1c[nH]cn1)C(=O)N[C@H]1CCC(=O)NCCCC[C@@H](C(=O)N[C@@H](CCCNC(=N)N)C(=O)N[C@@H](CCCCN)C(=O)N[C@@H](CCC(=O)O)C(=O)N[C@@H](CO)C(=O)N[C@@H](CCCCN)C(=O)N[C@@H](CCCCN)C(=O)N2CCC[C@H]2C(=O)N2CCC[C@H]2C(=O)N[C@@H](C)C(=O)N[C@@H](CCCCN)C(=O)N[C@@H](CC(C)C)C(=O)N[C@@H](CCC(N)=O)C(=O)N2CCC[C@H]2C(=O)N[C@@H](CCCNC(=N)N)C(=O)O)NC(=O)[C@H](CCC(N)=O)NC(=O)[C@H](C(C)C)NC(=O)[C@H](CCCNC(=N)N)NC1=O
B10: H-PS-S(O-octyl)-FLSPK-NH2 (peptide)
peptide: H-PSS(Octyl)FLSPK-NH2
SMILES: CCCCCCCCOC[C@H](NC(=O)[C@H](CO)NC(=O)[C@@H]1CCCN1)C(=O)N[C@@H](Cc1ccccc1)C(=O)N[C@@H](CC(C)C)C(=O)N[C@@H](CO)C(=O)N1CCC[C@H]1C(=O)N[C@@H](CCCCN)C(N)=O
B11: H-PS-S(O-octyl)-FLSPEHQRVQRKESKKPPAKLQPR-NH2 (peptide)
peptide: H-PSS(Octyl)FLSPEHQRVQRKESKKPPAKLQPR-NH2
SMILES: CCCCCCCCOC[C@H](NC(=O)[C@H](CO)NC(=O)[C@@H]1CCCN1)C(=O)N[C@@H](Cc1ccccc1)C(=O)N[C@@H](CC(C)C)C(=O)N[C@@H](CO)C(=O)N1CCC[C@H]1C(=O)N[C@@H](CCC(=O)O)C(=O)N[C@@H](Cc1c[nH]cn1)C(=O)N[C@@H](CCC(N)=O)C(=O)N[C@@H](CCCNC(=N)N)C(=O)N[C@H](C(=O)N[C@@H](CCC(N)=O)C(=O)N[C@@H](CCCNC(=N)N)C(=O)N[C@@H](CCCCN)C(=O)N[C@@H](CCC(=O)O)C(=O)N[C@@H](CO)C(=O)N[C@@H](CCCCN)C(=O)N[C@@H](CCCCN)C(=O)N1CCC[C@H]1C(=O)N1CCC[C@H]1C(=O)N[C@@H](C)C(=O)N[C@@H](CCCCN)C(=O)N[C@@H](CC(C)C)C(=O)N[C@@H](CCC(N)=O)C(=O)N1CCC[C@H]1C(=O)N[C@@H](CCCNC(=N)N)C(N)=O)C(C)C
B12: H-GS-S(octanoyl)-FLSPEHQRVQQRK()ESKE()PPAKLQPR-OH (peptide)
peptide: H-GSS(Octanoyl)FLSPEHQRVQQRKESKEPPAKLQPR-OH
modifications: lactam 16-20
SMILES: CCCCCCCC(=O)OC[C@H](NC(=O)[C@H](CO)NC(=O)CN)C(=O)N[C@@H](Cc1ccccc1)C(=O)N[C@@H](CC(C)C)C(=O)N[C@@H](CO)C(=O)N1CCC[C@H]1C(=O)N[C@@H](CCC(=O)O)C(=O)N[C@@H](Cc1c[nH]cn1)C(=O)N[C@@H](CCC(N)=O)C(=O)N[C@@H](CCCNC(=N)N)C(=O)N[C@H](C(=O)N[C@@H](CCC(N)=O)C(=O)N[C@@H](CCC(N)=O)C(=O)N[C@@H](CCCNC(=N)N)C(=O)N[C@H]1CCCCNC(=O)CC[C@@H](C(=O)N2CCC[C@H]2C(=O)N2CCC[C@H]2C(=O)N[C@@H](C)C(=O)N[C@@H](CCCCN)C(=O)N[C@@H](CC(C)C)C(=O)N[C@@H](CCC(N)=O)C(=O)N2CCC[C@H]2C(=O)N[C@@H](CCCNC(=N)N)C(=O)O)NC(=O)[C@H](CCCCN)NC(=O)[C@H](CO)NC(=O)[C@H](CCC(=O)O)NC1=O)C(C)C

In this assay the target is human growth hormone secretagogue receptor type 1a (human, UniProt Q92847 1-366). As to the kind of experiment: cell-based or functional assay.
human growth hormone secretagogue receptor type 1a, sequence (Q92847 whole entry): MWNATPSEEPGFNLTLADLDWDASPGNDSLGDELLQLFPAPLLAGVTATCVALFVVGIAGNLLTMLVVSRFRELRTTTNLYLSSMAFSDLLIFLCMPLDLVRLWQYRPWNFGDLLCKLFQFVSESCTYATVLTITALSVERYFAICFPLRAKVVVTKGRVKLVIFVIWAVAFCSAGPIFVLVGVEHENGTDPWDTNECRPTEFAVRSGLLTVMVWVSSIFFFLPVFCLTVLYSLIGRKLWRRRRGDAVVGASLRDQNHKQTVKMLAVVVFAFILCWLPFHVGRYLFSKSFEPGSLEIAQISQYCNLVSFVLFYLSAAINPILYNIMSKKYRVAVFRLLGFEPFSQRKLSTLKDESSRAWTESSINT
For the molecule B1, the “EC50 (nM); Ca2+ induction in HEK293 cells stably expressing the human ghrelin receptor” value (from here on “EC50 (nM); Ca2+ induction”) stood at 0.155 nM.

For the molecule B2, the “EC50 (nM); Ca2+ induction” value worked out at 0.195 nM.

As for B3, the “EC50 (nM); Ca2+ induction” value amounted to 0.364 nM.

Turning to H-PS[NH‑CH(n-C10H21)‑C(O)]FLSPEHQRVQQRKES-NH2 [H-PS-[NH-CH(n-C10H21)-C(O)]-FLSPEHQRVQQRKES-NH2], the “EC50 (nM); Ca2+ induction” value is 0.164 nM.

With B4, the “EC50 (nM); Ca2+ induction” value came out at 0.534 nM.

Take H-PS[NH‑CH(n-C10H21)‑C(O)]FLSPK-NH2 [H-PS-[NH-CH(n-C10H21)-C(O)]-FLSPK-NH2]: the “EC50 (nM); Ca2+ induction” value was found to be 0.432 nM.

On to B5, for which the “EC50 (nM); Ca2+ induction” value was 0.365 nM.

As for H-PS[Dap](Octanoyl)FLSPEHQRVQRKESKKPPAKLQPR-NH2 [H-PS-Dap(N-octanoyl)-FLSPEHQRVQRKESKKPPAKLQPR-NH2], the “EC50 (nM); Ca2+ induction” value was found to be 0.253 nM.

For the molecule H-PS[NH‑CH(n-C10H21)‑C(O)]FLSPEHQRVQQRKESKKPPA-NH2 [H-PS-[NH-CH(n-C10H21)-C(O)]-FLSPEHQRVQQRKESKKPPA-NH2], the “EC50 (nM); Ca2+ induction” value amounted to 0.255 nM.

As to B6, the “EC50 (nM); Ca2+ induction” value worked out at 1.4 nM.

Consider B7, for which the “EC50 (nM); Ca2+ induction” value was found to be 0.527 nM.

For B8, the “EC50 (nM); Ca2+ induction” value came to 1.69 nM.

For the molecule B9, the “EC50 (nM); Ca2+ induction” value turned out to be 0.597 nM.

On to B10, for which the “EC50 (nM); Ca2+ induction” value is 0.388 nM.

Regarding B11, the “EC50 (nM); Ca2+ induction” value was 0.33 nM.

Take H-GSSFLSPEHQKAQQRKESKKPPAKLQPR-OH [rat ghrelin without octanoyl moiety at position 3]: the “EC50 (nM); Ca2+ induction” value is > 1000 nM.

As for B12, the “EC50 (nM); Ca2+ induction” value came out at 1.29 nM.
